# According to patent US20200407457A1 (YANTAI OBIOADC BIOMEDICAL TECHNOLOGY, published 2020):
# Target: T1, TRAILR2 receptor on the surface of human tumor cells (human, UniProt O14763 56-440)
# Experiment: cell-based or functional assay
Binder,"IC50, cytotoxic effect on A2780 cells (CellTiter-Glo, 72 h)","IC50, cytotoxic effect on Jurkat E6-1 cells (CellTiter-Glo, 72 h)","IC50, cytotoxic effect on Mia PaCa-2 cells (CellTiter-Glo, 72 h)","IC50, cytotoxic effect on NCI-H460 cells (CellTiter-Glo, 72 h)","IC50, cytotoxic effect on NCI-H1975 cells (CellTiter-Glo, 72 h)","IC50, cytotoxic effect on SMMC-7721 cells (CellTiter-Glo, 72 h)","eff. (efficiency %), cytotoxic effect on Jurkat E6-1 cells","eff. (efficiency %), cytotoxic effect on Mia PaCa-2 cells","eff. (efficiency %), cytotoxic effect on NCI-H460 cells","eff. (efficiency %), cytotoxic effect on NCI-H1975 cells"
"Zapadcine-1a (antibody, V domains shown, MMAD coupled through linker Py-Vc-PAB by thiol (disulfide) bridge coupling, cleavable; positions not given) VH: QVQLVQSGSELKKPGASVKVSCKASGYTFTDFSMNWVRQAPGQGLEWMGWINTETGEPTYADDFKGRFVFSLDTSVSTAYLQISSLKAEDTAVYYCARIDYWGQGTTVTVSS VL: DIVMTQSPLSLPVTPGEPASISCRSSQSLVHSNGNTYLHWYLQKPGQSPQLLIYKVSNRFSGVPDRFSGSGSGTDFTLKISRVEAEDVGVYYCFQSTHVPHTFGQGTKLEIKR",0.151 µg/mL,0.0134 µg/mL,0.135 µg/mL,0.0865 µg/mL,0.109 µg/mL,0.012 µg/mL,97.3%,88.4%,96.2%,84.6%
"Zapadcine-1b (antibody, V domains shown, MMAD coupled through linker Mc-Vc-PAB by thiol conventional coupling, cleavable; positions not given) VH: QVQLVQSGSELKKPGASVKVSCKASGYTFTDFSMNWVRQAPGQGLEWMGWINTETGEPTYADDFKGRFVFSLDTSVSTAYLQISSLKAEDTAVYYCARIDYWGQGTTVTVSS VL: DIVMTQSPLSLPVTPGEPASISCRSSQSLVHSNGNTYLHWYLQKPGQSPQLLIYKVSNRFSGVPDRFSGSGSGTDFTLKISRVEAEDVGVYYCFQSTHVPHTFGQGTKLEIKR",1.1 µg/mL,0.00871 µg/mL,0.604 µg/mL,0.178 µg/mL,0.411 µg/mL,0.178 µg/mL,98.6%,86.8%,93.3%,83.4%
"Zapadcine-1c (antibody, V domains shown, MMAD coupled through linker Py-MAA by thiol bridge coupling, non-cleavable; positions not given) VH: QVQLVQSGSELKKPGASVKVSCKASGYTFTDFSMNWVRQAPGQGLEWMGWINTETGEPTYADDFKGRFVFSLDTSVSTAYLQISSLKAEDTAVYYCARIDYWGQGTTVTVSS VL: DIVMTQSPLSLPVTPGEPASISCRSSQSLVHSNGNTYLHWYLQKPGQSPQLLIYKVSNRFSGVPDRFSGSGSGTDFTLKISRVEAEDVGVYYCFQSTHVPHTFGQGTKLEIKR",–,0.0165 µg/mL,0.173 µg/mL,0.0651 µg/mL,0.312 µg/mL,0.0197 µg/mL,98.1%,74%,46.4%,83%
"Zapadcine-1d (antibody, V domains shown, MMAF coupled through linker Mc-Vc-PAB by thiol conventional coupling, cleavable; positions not given) VH: QVQLVQSGSELKKPGASVKVSCKASGYTFTDFSMNWVRQAPGQGLEWMGWINTETGEPTYADDFKGRFVFSLDTSVSTAYLQISSLKAEDTAVYYCARIDYWGQGTTVTVSS VL: DIVMTQSPLSLPVTPGEPASISCRSSQSLVHSNGNTYLHWYLQKPGQSPQLLIYKVSNRFSGVPDRFSGSGSGTDFTLKISRVEAEDVGVYYCFQSTHVPHTFGQGTKLEIKR",–,0.108 µg/mL,1.02 µg/mL,1.03 µg/mL,1.67 µg/mL,0.583 µg/mL,84.9%,80%,80.6%,68.8%
"Zaptuzumab (antibody, V domains shown) VH: QVQLVQSGSELKKPGASVKVSCKASGYTFTDFSMNWVRQAPGQGLEWMGWINTETGEPTYADDFKGRFVFSLDTSVSTAYLQISSLKAEDTAVYYCARIDYWGQGTTVTVSS VL: DIVMTQSPLSLPVTPGEPASISCRSSQSLVHSNGNTYLHWYLQKPGQSPQLLIYKVSNRFSGVPDRFSGSGSGTDFTLKISRVEAEDVGVYYCFQSTHVPHTFGQGTKLEIKR",–,0.201 µg/mL,3.01 µg/mL,–,0.542 µg/mL,6.12 µg/mL,90.7%,27.5%,–,62.4%

# Same assay, conditions: not given
row,Binder,"eff. (efficiency %), cytotoxic effect on SMMC-7721 cells"
1,"Zapadcine-1a (antibody, V domains shown, MMAD coupled through linker Py-Vc-PAB by thiol (disulfide) bridge coupling, cleavable; positions not given) VH: QVQLVQSGSELKKPGASVKVSCKASGYTFTDFSMNWVRQAPGQGLEWMGWINTETGEPTYADDFKGRFVFSLDTSVSTAYLQISSLKAEDTAVYYCARIDYWGQGTTVTVSS VL: DIVMTQSPLSLPVTPGEPASISCRSSQSLVHSNGNTYLHWYLQKPGQSPQLLIYKVSNRFSGVPDRFSGSGSGTDFTLKISRVEAEDVGVYYCFQSTHVPHTFGQGTKLEIKR",99.4%
2,"Zapadcine-1b (antibody, V domains shown, MMAD coupled through linker Mc-Vc-PAB by thiol conventional coupling, cleavable; positions not given) VH: QVQLVQSGSELKKPGASVKVSCKASGYTFTDFSMNWVRQAPGQGLEWMGWINTETGEPTYADDFKGRFVFSLDTSVSTAYLQISSLKAEDTAVYYCARIDYWGQGTTVTVSS VL: DIVMTQSPLSLPVTPGEPASISCRSSQSLVHSNGNTYLHWYLQKPGQSPQLLIYKVSNRFSGVPDRFSGSGSGTDFTLKISRVEAEDVGVYYCFQSTHVPHTFGQGTKLEIKR",95.7%
3,"Zapadcine-1c (antibody, V domains shown, MMAD coupled through linker Py-MAA by thiol bridge coupling, non-cleavable; positions not given) VH: QVQLVQSGSELKKPGASVKVSCKASGYTFTDFSMNWVRQAPGQGLEWMGWINTETGEPTYADDFKGRFVFSLDTSVSTAYLQISSLKAEDTAVYYCARIDYWGQGTTVTVSS VL: DIVMTQSPLSLPVTPGEPASISCRSSQSLVHSNGNTYLHWYLQKPGQSPQLLIYKVSNRFSGVPDRFSGSGSGTDFTLKISRVEAEDVGVYYCFQSTHVPHTFGQGTKLEIKR",96.5%
4,"Zapadcine-1d (antibody, V domains shown, MMAF coupled through linker Mc-Vc-PAB by thiol conventional coupling, cleavable; positions not given) VH: QVQLVQSGSELKKPGASVKVSCKASGYTFTDFSMNWVRQAPGQGLEWMGWINTETGEPTYADDFKGRFVFSLDTSVSTAYLQISSLKAEDTAVYYCARIDYWGQGTTVTVSS VL: DIVMTQSPLSLPVTPGEPASISCRSSQSLVHSNGNTYLHWYLQKPGQSPQLLIYKVSNRFSGVPDRFSGSGSGTDFTLKISRVEAEDVGVYYCFQSTHVPHTFGQGTKLEIKR",93.7%
5,"Zaptuzumab (antibody, V domains shown) VH: QVQLVQSGSELKKPGASVKVSCKASGYTFTDFSMNWVRQAPGQGLEWMGWINTETGEPTYADDFKGRFVFSLDTSVSTAYLQISSLKAEDTAVYYCARIDYWGQGTTVTVSS VL: DIVMTQSPLSLPVTPGEPASISCRSSQSLVHSNGNTYLHWYLQKPGQSPQLLIYKVSNRFSGVPDRFSGSGSGTDFTLKISRVEAEDVGVYYCFQSTHVPHTFGQGTKLEIKR",48%

# Target: T1, TRAILR2 receptor on the surface of …
# Experiment: cell-based or functional assay
# Remark: another data set of the same source
Binder,"IC50, cytotoxic effect on A172 cells (CellTiter-Glo, 72 h)","IC50, cytotoxic effect on Jurkat E6-1 cells (CellTiter-Glo, 72 h)","IC50, cytotoxic effect on MSTO-211H cells (CellTiter-Glo, 72 h)","IC50, cytotoxic effect on Mia PaCa-2 cells (CellTiter-Glo, 72 h)","IC50, cytotoxic effect on Reh cells (CellTiter-Glo, 72 h)","eff. (efficiency %), cytotoxic effect on A172 cells","eff. (efficiency %), cytotoxic effect on Jurkat E6-1 cells","eff. (efficiency %), cytotoxic effect on MSTO-211H cells","eff. (efficiency %), cytotoxic effect on Mia PaCa-2 cells","eff. (efficiency %), cytotoxic effect on Reh cells"
"Zapadcine-3d (antibody, V domains shown, MMAE coupled through linker MC by thiol conventional coupling, non-cleavable; positions not given) VH: QVQLVQSGSELKKPGASVKVSCKASGYTFTDFSMNWVRQAPGQGLEWMGWINTETGEPTYADDFKGRFVFSLDTSVSTAYLQISSLKAEDTAVYYCARIDYWGQGTTVTVSS VL: DIVMTQSPLSLPVTPGEPASISCRSSQSLVHSNGNTYLHWYLQKPGQSPQLLIYKVSNRFSGVPDRFSGSGSGTDFTLKISRVEAEDVGVYYCFQSTHVPHTFGQGTKLEIKR",0.307 µg/mL,0.00571 µg/mL,0.123 µg/mL,0.139 µg/mL,0.0242 µg/mL,92.5%,98.9%,98.5%,81.7%,98.8%
"Zapadcine-3c (antibody, V domains shown, MMAE coupled through linker MC-VC-PAB by thiol conventional coupling, cleavable; positions not given) VH: QVQLVQSGSELKKPGASVKVSCKASGYTFTDFSMNWVRQAPGQGLEWMGWINTETGEPTYADDFKGRFVFSLDTSVSTAYLQISSLKAEDTAVYYCARIDYWGQGTTVTVSS VL: DIVMTQSPLSLPVTPGEPASISCRSSQSLVHSNGNTYLHWYLQKPGQSPQLLIYKVSNRFSGVPDRFSGSGSGTDFTLKISRVEAEDVGVYYCFQSTHVPHTFGQGTKLEIKR",0.703 µg/mL,0.0896 µg/mL,0.22 µg/mL,0.508 µg/mL,0.889 µg/mL,93.2%,82%,98.2%,86.3%,98.6%
"Zaptuzumab (antibody, V domains shown) VH: QVQLVQSGSELKKPGASVKVSCKASGYTFTDFSMNWVRQAPGQGLEWMGWINTETGEPTYADDFKGRFVFSLDTSVSTAYLQISSLKAEDTAVYYCARIDYWGQGTTVTVSS VL: DIVMTQSPLSLPVTPGEPASISCRSSQSLVHSNGNTYLHWYLQKPGQSPQLLIYKVSNRFSGVPDRFSGSGSGTDFTLKISRVEAEDVGVYYCFQSTHVPHTFGQGTKLEIKR",–,0.201 µg/mL,0.514 µg/mL,2.9 µg/mL,1.59 µg/mL,–,90.7%,47.8%,33.2%,45%
"Zapadcine-3a (antibody, V domains shown, MMAE coupled through linker PY-VC-PAB by thiol bridge coupling, cleavable; positions not given) VH: QVQLVQSGSELKKPGASVKVSCKASGYTFTDFSMNWVRQAPGQGLEWMGWINTETGEPTYADDFKGRFVFSLDTSVSTAYLQISSLKAEDTAVYYCARIDYWGQGTTVTVSS VL: DIVMTQSPLSLPVTPGEPASISCRSSQSLVHSNGNTYLHWYLQKPGQSPQLLIYKVSNRFSGVPDRFSGSGSGTDFTLKISRVEAEDVGVYYCFQSTHVPHTFGQGTKLEIKR",0.225 µg/mL,0.0372 µg/mL,0.127 µg/mL,0.097 µg/mL,0.0159 µg/mL,98.2%,80.2%,97.5%,88.8%,89.8%
"Zapadcine-3e (antibody, V domains shown, MMAF coupled through linker MC by thiol conventional coupling, non-cleavable; positions not given) VH: QVQLVQSGSELKKPGASVKVSCKASGYTFTDFSMNWVRQAPGQGLEWMGWINTETGEPTYADDFKGRFVFSLDTSVSTAYLQISSLKAEDTAVYYCARIDYWGQGTTVTVSS VL: DIVMTQSPLSLPVTPGEPASISCRSSQSLVHSNGNTYLHWYLQKPGQSPQLLIYKVSNRFSGVPDRFSGSGSGTDFTLKISRVEAEDVGVYYCFQSTHVPHTFGQGTKLEIKR",–,0.0981 µg/mL,0.177 µg/mL,0.951 µg/mL,0.163 µg/mL,–,90.7%,99.1%,53%,77.4%
"Zapadcine-3b (antibody, V domains shown, MMAE coupled through linker PY-MAA by thiol bridge coupling, non-cleavable; positions not given) VH: QVQLVQSGSELKKPGASVKVSCKASGYTFTDFSMNWVRQAPGQGLEWMGWINTETGEPTYADDFKGRFVFSLDTSVSTAYLQISSLKAEDTAVYYCARIDYWGQGTTVTVSS VL: DIVMTQSPLSLPVTPGEPASISCRSSQSLVHSNGNTYLHWYLQKPGQSPQLLIYKVSNRFSGVPDRFSGSGSGTDFTLKISRVEAEDVGVYYCFQSTHVPHTFGQGTKLEIKR",0.389 µg/mL,0.0717 µg/mL,0.255 µg/mL,0.415 µg/mL,0.196 µg/mL,90.8%,87.1%,91%,52.9%,75.3%
